# In IntAct's records for PubMed 16775625:
# B1: Cyclin-dependent kinase 14 (Homo sapiens), O94921 (parent)
# chain: MCDLIEPQPAEKIGKMKKLRRTLSESFSRIALKKDDTTFDEICVTKMSTRNCQGMDSVIKPLDTIPEDKKVRVQRTQSTFDPFEKPANQVKRVHSENNACINFKTSSTGKESPKVRRHSSPSSPTSPKFGKADSYEKLEKLGEGSYATVYKGKSKVNGKLVALKVIRLQEEEGTPFTAIREASLLKGLKHANIVLLHDIIHTKETLTLVFEYVHTDLCQYMDKHPGGLHPDNVKLFLFQLLRGLSYIHQRYILHRDLKPQNLLISDTGELKLADFGLARAKSVPSHTYSNEVVTLWYRPPDVLLGSTEYSTCLDMWGVGCIFVEMIQGVAAFPGMKDIQDQLERIFLVLGTPNEDTWPGVHSLPHFKPERFTLYSSKNLRQAWNKLSYVNHAEDLASKLLQCSPKNRLSAQAALSHEYFSDLPPRLWELTDMSSIFTVPNVRLQPEAGESMRAFGKNNSYGKSLSNSKH
# partner: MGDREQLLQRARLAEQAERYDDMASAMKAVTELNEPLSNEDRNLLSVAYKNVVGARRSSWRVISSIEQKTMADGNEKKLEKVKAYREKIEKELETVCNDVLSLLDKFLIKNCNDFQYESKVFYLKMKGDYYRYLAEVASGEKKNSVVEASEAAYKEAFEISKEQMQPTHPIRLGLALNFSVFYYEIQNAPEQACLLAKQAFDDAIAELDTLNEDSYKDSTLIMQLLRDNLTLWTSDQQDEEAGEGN
# B2: Cyclin-dependent kinase 14 (Homo sapiens), O94921 (parent)
# chain: B1 chain
# B3: Cyclin-dependent kinase 14 (Homo sapiens), O94921 (parent)
# chain: B1 chain
# partner: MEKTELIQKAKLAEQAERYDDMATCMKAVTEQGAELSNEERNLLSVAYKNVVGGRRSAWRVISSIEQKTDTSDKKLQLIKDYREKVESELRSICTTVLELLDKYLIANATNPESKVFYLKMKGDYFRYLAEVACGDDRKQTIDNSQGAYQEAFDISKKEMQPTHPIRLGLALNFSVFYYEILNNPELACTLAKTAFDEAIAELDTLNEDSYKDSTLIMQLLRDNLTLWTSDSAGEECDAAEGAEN
# Variants of: B1
# Settings: with 1433f_human YWHAH
row,Variant,effect of a mutation on the interaction
1,S119A,decreasing interaction

# Variants of: B2
# Settings: with 1433b_human YWHAB
row,Variant,effect of a mutation on the interaction
1,S119A,decreasing interaction

# Variants of: B2
# Settings: with 1433e_human YWHAE
row,Variant,effect of a mutation on the interaction
1,S119A,decreasing interaction

# Variants of: B3
# Settings: with 1433t_human YWHAQ
row,Variant,effect of a mutation on the interaction
1,S119A,decreasing interaction
